The results in this text go back to paper PMC3726526, “Structural and Functional Characterization of the Recombinant Death Domain from Death-Associated Protein Kinase” (PLoS ONE, 2013).

A word on the Kd: it is a measure of binding affinity in units of concentration. Read a high Kd as a looser complex. In general, stoichiometry N refers to the number of molecules, sites or subunits per partner or assembly.

The target in this assay is T1, GST-ERK2 (extracellular-regulated kinase-2) (human, UniProt P28482 1-360).
T1 construct: full length human ERK2 in pGEX-6-P3, N-terminal GST with a PreScission protease site; The methods and results of the ITC say 'ERK2'; the discussion says that the ITC and CD were done with GST-ERK2; source: E. coli BL21 codon plus; in cell lysate, held on glutathione beads (pull-down); large scale production as previously described [25]; (ITC); not shown: GST, N-terminal, kept
Description: ITC; VP-ITC, 25 C; 19 injections of 15 ul of 159 uM GB1-DAPk-DD(L) or 250 uM GB1-DAPk-DD(S) into 1.45 ml of 8.85-18.6 uM ERK2; 50 mM HEPES pH 7.5, 50 mM NaCl, 1 mM TCEP, 1 mM EDTA. As to conditions: both partners purified. For orientation: ITC needs no label: the signal is the heat of the interaction.

T1 sequence (P28482 whole entry): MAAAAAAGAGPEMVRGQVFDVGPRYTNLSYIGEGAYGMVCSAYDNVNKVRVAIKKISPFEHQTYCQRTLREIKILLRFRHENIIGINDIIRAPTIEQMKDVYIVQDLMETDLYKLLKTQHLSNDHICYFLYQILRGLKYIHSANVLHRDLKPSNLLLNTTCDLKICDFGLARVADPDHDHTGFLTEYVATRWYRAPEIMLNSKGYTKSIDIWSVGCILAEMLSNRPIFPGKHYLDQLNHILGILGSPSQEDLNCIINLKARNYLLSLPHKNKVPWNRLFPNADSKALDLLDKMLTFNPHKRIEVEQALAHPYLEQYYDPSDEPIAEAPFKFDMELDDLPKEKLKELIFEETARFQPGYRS

B1: GB1-DAPk-DD(S) (domain or fragment, human, UniProt P53355 1293-1399, looked up)
chain: QASLGMDIHASDLNLLTRRKLSRLLDPPDPLGKDWCLLAMNLGLPDLVAKYNTSNGAPKDFLPSPLHALLREWTTYPESTVGTLMSKLRELGRRDAADFLLKASSVF
notes: death domain region of human death-associated protein kinase (DAPk, DAPK1), residues 1293-1399; Cloned between BamHI and XhoI of plasmid GEV2; all experiments were done with the intact GB1 fusion (thrombin not used); Predicted monomer mass 19.6 kDa; By the primers the XhoI site should add Leu-Glu before the His6 tag (surmised); also called short GB1-DAPk-DD construct; full-length DAPk-DD (short …)
Regarding B1, the equilibrium dissociation constant (Kd) is 1770 nM, the dH is -12.7 kcal/mol and the “stoichiometry N” value is 0.97 ± 0.01.

B2: GB1-DAPk-DD(L) (domain or fragment, human, UniProt P53355 1293-1408, looked up)
chain: QASLGMDIHASDLNLLTRRKLSRLLDPPDPLGKDWCLLAMNLGLPDLVAKYNTSNGAPKDFLPSPLHALLREWTTYPESTVGTLMSKLRELGRRDAADFLLKASSVFKINLDGNGQ
notes: death domain region of human death-associated protein kinase (DAPk, DAPK1) with a nine-residue C-terminal extension from the Ser-rich tail, residues 1293-1408; Made by mutagenesis of a GEV vector holding residues 1293-1431; intact GB1 fusion in all experiments; Predicted monomer mass 20.6 kDa; also called long GB1-DAPk-DD construct; full-length DAPk-DD (long variant); source: E. coli BL21 codon …
Turning to B2, the Kd came to 920 nM, the dH was -9.18 kcal/mol and the “stoichiometry N” value was found to be 1.03 ± 0.01.
